Source: publication PMC10836841

Target: PhiKo endolysin (Thermus thermophilus HB27 bacteriophage phiKo)
Assay: AUC; sedimentation velocity, 50,000 rpm, 4°C, 20 mM MES, 150 mM NaCl, pH 6.0, in the absence or presence of 20 mM DPC detergent; PhiKo endolysin 1.2 mg/mL; continuous c(s) distribution (SEDFIT); monomer to dimer

PhiKo endolysin (enzyme)
percent of the signal in the dimer peak (with 20 mM DPC): 15% | percent of the signal in the dimer peak (without DPC): 2.3% | stoichiometry N: 2
